From the supplement of paper PMC10724198
± gives the standard deviation of the averaged measurements.

These sequences were tested on Saccharomyces cerevisiae (assay: protein stability index of tFT-peptide fusion (C-terminal peptide) (PSI (0-1 scale)); higher = more stable (slower turnover)). Conditions: genetic background: wild type; temperature: 30 C.
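Also: PSI is a weighted mean of sequencing reads over stability bins, variants kept only with over 10 reads, mCherry proximal and sfGFP distal, peptide attached via GGGS linker.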

Sequence	protein stability index
HRQTAKLKRIVI	0.651 ± 0.093
HRREEDQRPYSR	0.768 ± 0.021
HRTLPPPPLTVP	0.579 ± 0.027
HRVRICWVPRSR	0.674 ± 0.027
HSCLVRSDPPPS	0.704 ± 0.12
HSPSHPGSPHAC	0.7 ± 0.033
HSPSKLSSSTAT	0.681 ± 0.032
HSRSRAEPHHPP	0.555 ± 0.037
HSTSLLPSGSWF	0.734 ± 0.016
HSVEPARSSSAM	0.669 ± 0.07
HTANYILPLIHI	0.635 ± 0.044
HTRSPVPPPPPS	0.657 ± 0.0019
HVDGGAVLLEGQ	0.67888 ± 0.00049
HVGGISSPLTPC	0.656 ± 0.025
HVGYLIMVYRGR	0.646 ± 0.072
HVSPSPYPPGYP	0.697 ± 0.026
HWGRGGRSGGDR	0.697 ± 0.025
HWHLIKIKLKEK	0.742 ± 0.043
HWYLRCAVCEGV	0.651 ± 0.022
HYVQARMRSAVP	0.636 ± 0.091
IAAVQSGGRVAG	0.462 ± 0.057
IAGMFSLKFGVP	0.714 ± 0.082
IAKLLHSPSTFT	0.688 ± 0.014

Sequence	protein stability index
IAPLMSSILYPI	0.685 ± 0.025
ICHLTIFHLRRL	0.6151 ± 0.0037
ICIKKNTLTKTE	0.669 ± 0.012
ICLGCFEEYEGV	0.812 ± 0.077
ICSQLVVAWEGV	0.714
IDFNWESSTMNI	0.7438 ± 0.0058
IDGGSAWSAVSL	0.687 ± 0.018
IEATHKIDRCKD	0.676 ± 0.0086
IEPTFDGSLCLG	0.7 ± 0.0094
IESASRSTTGGI	0.77 ± 0.14
IFPFKDDVPFVS	0.684 ± 0.0015
IFPNSGKIEVLA	0.574 ± 0.016
IFPSIPTLLPPS	0.701 ± 0.041
IFRASTGASYRT	0.5738 ± 0.0034
IFWGFSFRGGGG	0.667 ± 0.012
IGCFVEFLYGVW	0.593 ± 0.023
IGFHGALPGICL	0.663 ± 0.054
IGLRKGVGIMRP	0.637 ± 0.12
IGRGAPPGWVGA	0.704 ± 0.02
IGSLCTPVCQCS	0.607 ± 0.019
IHLCPPPALRES	0.703 ± 0.0083
IHRTSVALFFFP	0.713 ± 0.034
IIAESPWFLIIR	0.444 ± 0.094

Sequence	protein stability index
IIEESTRPSPLG	0.697 ± 0.059
IIFQWVVPTILQ	0.546 ± 0.019
IIIVGSWSGGGG	0.663 ± 0.025
IILRSSLLPLLY	0.548 ± 0.013
IINKKANQKKKE	0.68 ± 0.032
IIPEPTKFSRQR	0.7059 ± 0.0026
IIQTTKPTRNIK	0.67 ± 0.022
IIRINSKMGSRK	0.725 ± 0.0078
IKIILLEKQGSK	0.697 ± 0.033
IKKANRKTKPMK	0.712 ± 0.078
IKKKVKNQKENQ	0.726 ± 0.013
IKKNRYYKRIII	0.657 ± 0.028
IKNEKKKEIELN	0.639 ± 0.0065
IKNEKKNKRKKK	0.71337 ± 0.00014
IKPTRKKTISTR	0.715 ± 0.095
IKRRKRNRKRGP	0.675 ± 0.041
IKTCANGPPHSM	0.64 ± 0.06
ILCASDLNRPCL	0.697 ± 0.04
ILFVTASSFSPP	0.67 ± 0.045
ILPCLSVRFFAP	0.658 ± 0.0068
ILPYTDTVCYRY	0.699 ± 0.047
ILRLVGRGLVLL	0.639 ± 0.013
ILSDCWDQTIIE	0.671 ± 0.018

Sequence	protein stability index
ILSFPYSQYFMS	0.7242 ± 0.0052
ILSRTEGHCLII	0.739 ± 0.074
ILVGPTDFLPLE	0.651 ± 0.016
ILVSRQGRGMRS	0.643 ± 0.013
ILVSVLRFVRNR	0.691 ± 0.029
IMGGGGEGGINC	0.698 ± 0.019
IMRLCSSNRICG	0.678 ± 0.027
INGSTENKSVKT	0.644 ± 0.012
INKNKKKEKLTK	0.697 ± 0.015
INVKRSNAQRKG	0.754 ± 0.058
INVNNENLRGTE	0.663 ± 0.072
IPDPSPFTCPNV	0.557 ± 0.02
IPGVPPPRFSIR	0.704 ± 0.034
IPLCRVAGPKLK	0.591 ± 0.048
IPLPMLLHLPRA	0.684 ± 0.019
IPRHLGTRVVPI	0.682 ± 0.072
IPSLSLPLQTGS	0.64 ± 0.055
IQAERKKSYKDT	0.616 ± 0.075
IQSRGQEKKKRK	0.673 ± 0.0075
IRGWVRCRVARG	0.683 ± 0.021
IRILDARYLSIS	0.62 ± 0.12
IRKKIRKKTIYK	0.798 ± 0.034
IRKKNKEKIKNQ	0.691 ± 0.25

Sequence	protein stability index
IRKPRRHRTVET	0.73 ± 0.057
IRNSDNNKNHPR	0.693 ± 0.042
IRPSQASSLRKT	0.634 ± 0.066
IRQPIPTKVHRL	0.744 ± 0.045
IRVAWTPRSYDL	0.664 ± 0.038
ISALYVPGILSK	0.6 ± 0.018
ISCSDNMLLLFD	0.697 ± 0.01
ISCTASRCRLTR	0.744 ± 0.025
ISFGSVFSGFFH	0.7354 ± 0.0014
ISFTDPSMGTLG	0.608 ± 0.11
ISGEISTLLKTR	0.71 ± 0.081
ISLGGNWHRVVT	0.649 ± 0.019
ISSGRRFRAGAE	0.703 ± 0.046
ISSIRKNSKREE	0.755 ± 0.031
ISVRAVDFGIAG	0.68 ± 0.033
ITAATFCRRPAS	0.659 ± 0.12
ITGSRVQVYIGR	0.693 ± 0.021
ITKELKNIKQED	0.675 ± 0.0088
ITLSCFPRPFPL	0.691 ± 0.02
ITRAKGKPEISL	0.639 ± 0.12
IVAWQGRNLTPL	0.655 ± 0.12
IVGAVMMGGRTM	0.68 ± 0.013
IVGEDRRRTAFR	0.678 ± 0.026

Sequence	protein stability index
IVMGVGCYTGRP	0.74 ± 0.036
IWAKLGFRLQYS	0.701 ± 0.13
IWGGGKGRAGRH	0.651 ± 0.041
IYCGDRGITGGV	0.683 ± 0.019
IYCWGVSFGWLR	0.68 ± 0.021
IYHCRKSYKTRQ	0.7205 ± 0.0042
IYNGMLREEKSL	0.728 ± 0.017
KAGVWLWGGGGG	0.678 ± 0.069
KALGLRDHAILD	0.6583 ± 0.004
KALKNEYRYRAF	0.645 ± 0.073
KAPPDERGTGAQ	0.6273 ± 0.0018
KARLRQRKSTSK	0.728 ± 0.0084
KAVSRQSEATPV	0.76 ± 0.093
KAYGSCRSLAWF	0.712 ± 0.061
KCKRGYSAVREL	0.936 ± 0.09
KCSKGSQGECHV	0.671 ± 0.05
KDGSKMQCNIKK	0.6763 ± 0.0014
KEDLGGMVSGGR	0.644 ± 0.009
KEEIRNKIKTIK	0.6809 ± 0.0063
KEKKGNKTKKQN	0.657 ± 0.017
KEKRLKATTQYE	0.699 ± 0.015
KELENLHDNEGN	0.616 ± 0.019
KELRYKKDRKKK	0.689 ± 0.026

Sequence	protein stability index
KENYGIKTKDRK	0.696 ± 0.075
KEQKIMSKKIEK	0.68978 ± 0.00026
KEREGGSMNGGG	0.692 ± 0.064
KEWLSRDIEDAS	0.665 ± 0.027
KFRFPVDLIFET	0.73 ± 0.015
KGDMSCWPSRPI	0.7137 ± 0.00075
KGGWGMRGVRGG	0.672 ± 0.0046
KGKFTRGGMAGT	0.668 ± 0.049
KGKKRKNEKNKR	0.691 ± 0.0089
KGLLSITLRNLD	0.63 ± 0.049
KGMVEESIIKRA	0.62084 ± 0.00038
KGRKKKKRKEQE	0.693 ± 0.016
KGRRVSTGRRRR	0.712 ± 0.004
KGRWEVRGEGRG	0.64 ± 0.03
KGSWCSPRGELR	0.6552 ± 0.0059
KHKGRSKETHDV	0.616 ± 0.09
KHLIHSRLGICG	0.6634 ± 0.0059
KHRKSKEIRTAR	0.6844 ± 0.0065
KIGEVNKKQSII	0.743 ± 0.064
KIIKKKKKNKEH	0.596 ± 0.055
KIIRKNILRNEY	0.658 ± 0.018
KIKNHQRQIMNT	0.494 ± 0.092
